# Reference: US20170267762A1 (APOLLOMICS, published 2017)
# Numbering of substitutions follows the chain as printed.
# T1: mouse PD-1 (mouse, UniProt Q02242 25-169, limits assumed)
# T1 sequence (looked up): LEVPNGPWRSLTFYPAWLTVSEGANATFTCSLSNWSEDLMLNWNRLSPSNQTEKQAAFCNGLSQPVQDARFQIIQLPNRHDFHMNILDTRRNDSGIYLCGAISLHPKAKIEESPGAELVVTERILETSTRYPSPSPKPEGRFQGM
# T2: human CTLA4 (human, UniProt P16410 36-161, limits assumed)
# T2 sequence (looked up): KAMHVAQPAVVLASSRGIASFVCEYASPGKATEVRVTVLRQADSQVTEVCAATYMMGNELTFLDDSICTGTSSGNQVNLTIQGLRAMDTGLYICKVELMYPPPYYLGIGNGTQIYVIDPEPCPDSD
# T3: human ICOS (human, UniProt Q9Y6W8 21-140, limits assumed)
# T3 sequence (looked up): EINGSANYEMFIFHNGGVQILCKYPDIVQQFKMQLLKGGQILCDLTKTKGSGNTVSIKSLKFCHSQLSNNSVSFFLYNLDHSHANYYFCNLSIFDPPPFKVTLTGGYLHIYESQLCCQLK
# B1: 5A8 murine anti-PD-1 antibody (antibody, V domains shown)
# VH: QVQLQQSGDELVRPGTSVKMSCKAAGYTFTNNWIGWVKQRPGHGLEWIGDFYPGGGYTNYNEKFKGKATLTADTSSSTAYMQLSSLTSEDSAIYYCARGYGTNYWYFDVWGAGTTVTVSS
# VL: NIVMTQTPKILFISAGDRVTITCKASQSVSNDVAWYQQKPGQSPKLLIYYAFTRYIGVPDRFTGSGYGTDFTFTISTVQAEDLAVYFCQQDYSSPYTFGGGTKLEIKR
# notes: Purified hybridoma antibody; also called 5A8-mIgG1
# B2: 10D1 murine anti-PD-1 antibody (antibody, V domains shown)
# VH: EVKLVESGGGLVKPGGSLKLSCAASGFTFSSYGMSWLRQTPEKRLEWVATMSGGGRDIYYPDSMKGRFTISRDNAKNNLYLQMSSLRSEDTALYYCARQYYDDWFAYWGQGTLVTVSA
# VL: DIVLTQTPATLSVTPGDSVSLSCRASQSISNNLHWYQQKSHESPRLLIKYASQSISGIPSRFSGSGSGTDFTLNINSVETEDFGMYFCQQSNSWPLTFGAGTKLELKR
# notes: Purified hybridoma antibody; also called 10D1-mIgG1
# B3: 14A6 murine anti-PD-1 antibody (antibody, V domains shown)
# VH: DVQLQESGPGLVKPSQSLSLTCTVTGYSITSDYAWNWIRQFPGNQLEWMAYISYSGYTSYNPSLKSRISITRDTSRNQFFLQLNSVTTEDTATYYCARSLDYDYGTMDYWGQGTSVTVSS
# VL: QIVLSQSPAILSASPGEKVTMTCRANSSVSSMHWYQQKPGSSPEPWIYAISNLAFGVPARFSGSGSGTSYSLTISRVEAEDAATYFCQQWNSRPPTFGGGTKLEIKR
# notes: Purified hybridoma antibody; also called 14A6-mIgG1
# B4: chimeric 15H5-hIgG4 (antibody, V domains shown)
# VH: EVKLVESGGGLVKPGGSLKLSCAASGFAFRSYDMSWVRQTPEKILEWVATISGGGSYTYYQDSVKGRFTISRDNARNTLYLQMSSLRSEDTALYYCASPYGPYFDYWGQGTTLTVSS
# VL: DIQMNQSPSSLSASLGDTITITCHASQSINVWLSWYQQKPGNIPKLLIYRASNLHTGVPSRFSGSGSGTGFTLTISSLQPDDIATYYCQQGQSYPWTFGGGTKLEIKR
# notes: Mouse variable regions with human IgG4 constant region
# B5: chimeric 22A5-hIgG4 (antibody, V domains shown)
# VH: EVKLVESGGGLVKPGGSLKLSCSASGFSFSYYDMSWVRQTPEKGLEWVATISGGGRNTYFIDSVKGRFTISRDNVKNNLYLLMSSLRSEDTALYYCASPYEGAVDFWGQGTSVTVSS
# VL: DIVMTQSHKVMSTSVGDRVSITCKASQDVDNAVAWYQQNPGQSPKLLIKWASTRHHGVPDRFTGSGSGTDFTLTISTVQSEDLADFFCQQYSTFPYTFGGGTKLEIKR
# notes: as for B4
# B6: chimeric 6E1-hIgG4 (antibody, V domains shown)
# VH: B2 VH with L37V, M51I, I58T, P61L, M64V, A97V, T115S, V116N
# VL: B2 VL with I29L, N74S, L106M
# notes: as for B4
# B7: chimeric 7D3-hIgG4 (antibody, V domains shown)
# VH: B2 VH with A23G, L37V, M51I, M64V, F68L, A97V
# VL: B2 VL with T7S, N32D, A51V, N74S, N92D
# notes: as for B4
# Target: T1, mouse PD-1
# Test: assays not detailed
row,binding result,Binder
1,no binding,B1
2,no binding,B2
3,no binding,B3

# Target: T4, human PD-1 extracellular domain fused with human Fc tag (hPD-1-hFc) (human)
# T4 construct: also called human PD-1-hFc
# Test: ELISA on coated PD1-hFc
# Description: (§1) ELISA binding analysis was conducted based on human PD-1-hFc Protein. 96-well plates (Costar, Cat No:9018) were coated with 100 μL of 2 μg/ml PD1-hFc (CrownBio) in coating buffer (PBS, Hyclone, Cat No:SH30256.01B) overnight at 4° C. The wells were aspirated and non-specific binding sites were blocked by adding 200 μL of blocking buffer with 1% (w/v) of bovine serum albumin (BSA, Roche, Cat No: 738328) and incubating for 1 hour at 37° C. After the plates are washed three times with wash buffer (PBS with 0.05%(v/v) Tween20 (Sigma, Cat No:P1379), 100 μL/well of a suitable dilutions of hybridoma supernatant in blocking buffer were added and incubated at room temperature for 1 hour. The plates were washed and incubated with 100 μL/well of Goat anti-Mouse IgG (H+L) (Thermo, Cat No: 31432) in blocking buffer for 60 min. After the plates were washed, 100 μL/well of substrate solution (TMB(eBioscience, Cat No:00-4201-56) was added and the plates were incubated for 2min at room temperature. 100 μL/well of stop solution (2N H2SO4) was added to stop the reaction. The colorimetric signals were developed and read at 450 nm using a Auto Plate SpectraMax Plus (Supplier: Molecular Devices; Model: MNR0643; Software: SoftMax Pro v5.4).
# (§2) The purified hybridoma antibodies were characterized further based on ELISA and FACS analyses.
# T4 sequence (chain, as listed by the source limits assumed): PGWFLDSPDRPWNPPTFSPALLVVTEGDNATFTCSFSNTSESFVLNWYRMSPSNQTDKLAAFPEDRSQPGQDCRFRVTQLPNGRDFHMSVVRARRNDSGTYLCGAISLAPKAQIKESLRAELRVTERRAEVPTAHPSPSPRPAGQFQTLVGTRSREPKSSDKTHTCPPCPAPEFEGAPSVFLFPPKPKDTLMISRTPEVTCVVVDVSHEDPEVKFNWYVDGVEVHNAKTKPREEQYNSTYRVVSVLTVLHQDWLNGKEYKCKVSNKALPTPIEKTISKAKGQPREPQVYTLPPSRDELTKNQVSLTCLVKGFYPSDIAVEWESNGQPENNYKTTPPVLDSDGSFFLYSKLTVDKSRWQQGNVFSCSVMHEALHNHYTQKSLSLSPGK
row,EC50,Binder
1,0.0112 µg/mL,B1
2,0.0172 µg/mL,B2
3,0.00707 µg/mL,B3

# Target: T4, human PD-1 extracellular domain fused …
# Test: ELISA on coated PD1-hFc
# Remark: another data set of the same source
# Description: as §1
# (§3) Freestyle 293 cells (200 mL at 10⁶/mL) were transfected with 100 μg of each of the chimeric heavy and light chain expression plasmids and cultured for 6 days. The chimeric antibody in the supernatant was then purified with Protein-G column (GE healthcare).
row,EC50,Binder
1,0.0818 µg/mL,B4
2,0.0413 µg/mL,B5
3,0.0325 µg/mL,B6
4,0.0517 µg/mL,B7

# Target: T5, human PD-1 on cells (293T cells transfected with human PD-1) (human, UniProt Q15116 25-288)
# T5 construct: whole, on cells; Also used as the target for the functional rows, where PD-1 stands on human T cells
# Test: FACS on hPD-1-293T cells
# Description: The cells were incubated with the indicated antibody (20 ug/ml with the dilution of ⅕) at 4° C. for 1 h. Cells were washed three times with FACS buffer. A secondary antibody (PE Goat anti-mouse: 1:200; PE mouse anti-human: 1:10) was added to the cells at 100 ul/well, and incubated at 4° C. for 40min. Cells were washed three times with FACS buffer and analyzed by FACS Array.
# as §3
# T5 sequence (Q15116 25-288): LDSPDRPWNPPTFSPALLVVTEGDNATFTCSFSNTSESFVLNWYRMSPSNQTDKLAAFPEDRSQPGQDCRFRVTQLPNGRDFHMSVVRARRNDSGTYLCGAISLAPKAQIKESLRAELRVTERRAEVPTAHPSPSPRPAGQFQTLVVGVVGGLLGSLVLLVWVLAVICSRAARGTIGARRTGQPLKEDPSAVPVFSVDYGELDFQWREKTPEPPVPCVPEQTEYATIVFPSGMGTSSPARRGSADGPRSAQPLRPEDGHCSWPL
row,EC50,Binder
1,0.244 µg/mL,B4
2,0.145 µg/mL,B5
3,0.143 µg/mL,B6
4,0.131 µg/mL,B7

# Target: T4, human PD-1 extracellular domain fused …
# Test: ELISA binding (summary table)
# Description: as §1, §2
row,EC50,Binder
1,0.0112 µg/mL,B1
2,0.0172 µg/mL,B2
3,0.00707 µg/mL,B3

# Target: T6, human PD-1 (construct not stated) (human, UniProt Q15116 25-167, limits assumed)
# T6 construct: also called PD-1 analyte
# Test: Biacore, antibody captured, PD-1 analyte
# Description: (§4) To further characterize the binding characteristics of the antibodies, 10 hybridoma antibodies were profiled using Biacore (Biacore 3000, GE) to elucidate binding kinetics and calculate equilibrium binding constants. This assay was performed by capture method, using the mouse antibody capture kit (BR-1008-38, GE). After diluting anti-mouse Fc mab to 25 μg/ml in pH 5.0 immobilization buffer, immobilization was conducted with the parameters shown in Table 6 at a flow rate of 5 μl/min. The kinetic runs were done by 1) injecting ligand for typical 0.5-1 min at flow rate of 10 μl/min.; 2) injecting analytes of choice for typical 3 min followed by dissociation in running buffer (1× PBS-P20) for typical 5-10 min at flow rate of 30 μl/min.; and 3) injecting regeneration solution 10 mM Glycine pH1.7 for typical 1-2 min at flow rate of 10 μl/min.
# T6 sequence (Q15116 25-167 limits assumed): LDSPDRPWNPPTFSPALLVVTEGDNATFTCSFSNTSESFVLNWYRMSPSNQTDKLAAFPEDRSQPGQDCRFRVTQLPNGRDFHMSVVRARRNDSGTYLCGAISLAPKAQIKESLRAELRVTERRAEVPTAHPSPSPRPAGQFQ
Ka,Kd,koff,kon,Binder
1.7e+10 M⁻¹,0.0587 nM,7.55e-05 s⁻¹,1.29e+06 M⁻¹ s⁻¹,B1
1.6e+10 M⁻¹,0.0623 nM,5.24e-05 s⁻¹,840000 M⁻¹ s⁻¹,B2
3.33e+10 M⁻¹,0.03 nM,4.52e-05 s⁻¹,1.51e+06 M⁻¹ s⁻¹,B3

# Target: T6, human PD-1 (construct not stated)
# Test: Biacore (summary table; unit from Table 7)
# Description: as §4
row,Kd,Binder
1,0.0587 nM,B1
2,0.0623 nM,B2
3,0.03 nM,B3

# Target: T2, human CTLA4
# Test: Interaction with CTLA4, ICOS CD28; assay not detailed
row,binding result,Binder
1,no binding,B1
2,no binding,B2
3,no binding,B3

# Target: T3, human ICOS
# Test: as above
row,binding result,Binder
1,no binding,B1
2,no binding,B2
3,no binding,B3

# Target: human CD28 (human, UniProt P10747 19-152, limits assumed)
# Test: as above
# Chain of human CD28 (P10747 19-152 limits assumed): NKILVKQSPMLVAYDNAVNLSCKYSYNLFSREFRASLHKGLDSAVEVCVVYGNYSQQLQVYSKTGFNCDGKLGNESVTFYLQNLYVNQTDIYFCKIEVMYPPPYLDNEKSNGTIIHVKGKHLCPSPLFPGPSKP
row,binding result,Binder
1,no binding,B1
2,no binding,B2
3,no binding,B3

# Target: T5, human PD-1 on cells (293T cells …)
# Test: FACS blockage on hPD-1-293T cells, competitor biotin PD-L1
# Description: (§5) Various concentrations of the testing hybridoma antibodies were added to the cell suspension and incubated at 4° C. for 60 minutes in 96 well plates. […] Plates were washed 3 times, and mouse anti-biotin PE antibody (Biolgend, cat# 409004) was added. Flow cytometric analyses were performed using a FACS Array.
# as §2
row,IC50,Binder
1,0.0282 µg/mL,B1
2,0.0369 µg/mL,B2
3,0.0211 µg/mL,B3

# Target: T5, human PD-1 on cells (293T cells …)
# Test: FACS blockage on hPD-1-293T cells, competitor biotin PD-L2
# Description: as §5, §2
row,IC50,Binder
1,0.0188 µg/mL,B1
2,0.15 µg/mL,B2
3,0.092 µg/mL,B3

# Target: T5, human PD-1 on cells (293T cells …)
# Test: FACS blockage on hPD-1-293T cells, competitor biotin PD-L1
# Remark: another data set of the same source
# Description: as §5, §3
row,IC50,Binder
1,0.101 µg/mL,B4
2,0.0843 µg/mL,B5
3,0.054 µg/mL,B6

# Target: T7, human PD-1 extracellular domain fused with mouse Fc (PD-1-mFc) (human, UniProt Q15116 25-170)
# T7 construct: extracellular domain; not used because of the label; also called hPD-1-mFc; human PD-1-mouse Fc fusion protein
# Test: blockage ELISA, coated PD-1-mFc, competitor PDL-1-mFc-biotin
# Description: (§6) PD-1-mFc antigen (CrownBio) was suspended in PBS (Hyclone,Cat No:SH30256.01B) buffer (2 ug/ml, 100 ul/ well) and coated on the 96 well plate (costar, Cat No.:9018) 4° C. overnight. Plates were washed 3 times using washing buffer: PBS+0.05% Tween 20(Sigma, Cat No.:P1379). 200 ul of blocking buffer (PBS+1%BSA(Roche, Cat No.:738328)), was added to each well, incubated at 37° C. for 1 hour, and washed 3 times. Various concentrations (suitable dilutions of hybridoma supernatant in PBS) of the anti-PD-1 Abs were added to the wells (100 μl/well) and incubated at 37° C. for 1 hour. […] Secondary antibody (Avidin HRP eBioscience cat No.:E07418-1632, 1:500, 100 ul/well) was added, incubated at 37 ° C. for 0.5 hour, and washed 3 times. TMB (Sigma, Cat No.: T0440, 100 ul/well) was added, and incubated for 3 min at RT. To stop the reaction, 2N H2SO4 (100 ul/well), was added. The colorimetric signals were developed and read at 450 nm using a Auto Plate SpectraMax Plus (Supplier: Molecular Devices; Model: MNR0643; Software: SoftMax Pro v5.4).
# as §2
# T7 sequence (Q15116 25-170): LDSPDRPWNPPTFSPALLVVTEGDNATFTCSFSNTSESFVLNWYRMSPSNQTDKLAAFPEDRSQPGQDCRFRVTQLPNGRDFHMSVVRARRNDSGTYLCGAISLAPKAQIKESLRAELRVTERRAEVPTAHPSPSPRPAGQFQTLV
row,IC50,Binder
1,1.13 µg/mL,B1
2,1.41 µg/mL,B2
3,0.923 µg/mL,B3

# Target: T7, human PD-1 extracellular domain fused …
# Test: as above
# Remark: another data set of the same source
# Description: as §6, §3
row,IC50,Binder
1,1.37 µg/mL,B4
2,1.01 µg/mL,B5
3,0.869 µg/mL,B6
4,0.948 µg/mL,B7

# Target: T7, human PD-1 extracellular domain fused …
# Test: blockage ELISA, competitor PDL-1-mFc-biotin (summary table; IC50 in ng/ml in Table 2)
# Description: as §6
row,IC50,Binder
1,1.13 µg/mL,B1
2,1.41 µg/mL,B2
3,0.923 µg/mL,B3
